The series is described as follows: yeast display, Sf9 membrane polyspecificity reagent, FACS + sequencing; frameworks hold sequencing errors. The essentials:
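A nanobody's polyreactivity label depends on the gate it was sorted from. Yeast display cells were stained with 10% biotinylated, detergent-solubilized Sf9 membrane reagent for 1 hour at 4 °C, enriched on streptavidin microbeads and sorted by FACS. The low and high (top ~1%) gates were set on anti-HA fluorescence for expression and streptavidin fluorescence for reagent binding.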
Consider “QVQLVESGGGLVQAGGRLRISCADSGSTFQFYALGWYRQAPGKERQLVASIRVRSGTTYYADSVKGRFTISRENAKNTVYLQMTSLKPEDTAVYYCAAGRPFYGRKYDYWGQGTQVTVSS”, for which the “polyreactivity (PSR sort gate)” value is on record as “high polyreactivity”.
As to “QVQLVESGGGLVQAGGSLRLSCAASGRILGRNAMGWYRQAPGKERELVAAISSGGNTYYADSVKGRFTISRDNAKNTVYLQMNSLKPEDTAVYYCNTGTYKDWGQGTQVTVSS”, the “polyreactivity (PSR sort gate)” value is on record as “low polyreactivity”.
The value for “QVQLEESGGGLVQPGGSLRLRCAASGITFYWNAMGWYRQAPVKERELVAGITNSGGGTYYADSVKGRFTISRDNSMYTVYLLMNSLKPEDSAVYYCAAEPTSWYFFYYVGDYLGQGTQVTVSS” was “high polyreactivity”; that for “QVQLVESGGGLVQAGGSLRLSCAASGSTFPYYAMGWYRQAPGKERELVAAITSGGSTNYADSVKGRFTISRDNAKNTVYLQMNSLKPEDTAVYYCNAEWRRRYTYLRRVYYGFDYWGQGTQVTVSS” was “high polyreactivity”.
For “QVQLVESGGGLVQAGGSLRLSCAASGSTFVQYAMGWYRQAPGKERELVAAISGSGGRTYYADSVKGRFTLSRDNAKNTVYSHMNSLKPEDTAVYYCAAAYNTDFYYWGQGTQVTVSS”, the “polyreactivity (PSR sort gate)” value is “high polyreactivity”.
On to “QVQLVESGGGLVQAGGSLRLSCAASGFTFYQYAMGWYRQAPGKERELVAAISSSGTSTYYADSVKGRFTISRDNAKNTVYLQMNSLKPEDTAVYYCAKDKSPYGYATNQYRKYYYWGQGTQVTVSS”, for which the “polyreactivity (PSR sort gate)” value is reported as “low polyreactivity”.
For the sequence “QVQLVESGGGLVQAGGSLRLSCAASGSIFYRYAMGWYRQAPGKERELVAVISTGGSTYYADSVKGRFTISRDNAKNTVYLQMNSLKPEDTAVYYCNVLYYSRYAPYGRYGYWGQGTQVTVSS”, the “polyreactivity (PSR sort gate)” value is on record as “high polyreactivity”.
With “QVQLVESGGGLVQAGGSLRLSCAASGFTFAYYAMGWYRQAPGKERELVATITSGGRTYYADSVKGRFTISRDNAKNTVYLQMNSLKPEDTAVYYCAAAGKGRYHFRSTMDYWGQGTQVTVSS”, the “polyreactivity (PSR sort gate)” value is on record as “high polyreactivity”.
The value for “QVQLVESGGGLVQAGGSLRLSCAASGFTFQSYAMGWYRQAPGKERELVATIRTRGGSTSYADSVKGRFTISRDNAKNTVYLQMNSLKPEDTAVYYCNGRLSYRSAWYYGGDRYDYWGQGTQVTVSS” was “high polyreactivity”.
With “QVQLVESGGGLVQAGGSLRLSCAASGFIFRYYAMGWYRQAPGKERELVADISWSGGSTHYADSVKGRFTISRDNAKNTVYLQMNSQKPEDTAVYYCAADPTLYSSWSTYYRSNYWGQGTQVTVSS” the entry was “high polyreactivity”; with “QVQLVESGGGLVQAGGSLRLSCAASGSIFSYYPMGWYRPAPGKERELVAAISWSGGSTYYADSVKGRFTISRDNAKNTVYLQMNSLKPEDTAVYYCAAQSWSGDSSFWRYDYWGQGTQVTVSS”, “low polyreactivity”.
Take “QVQLVESGGGLVQAGGSLRLSCAASGSILNNYAMGWYRQAPGKERELVAAISSSGGTNYADSVKGRFTISRDNAKNTVYLPMNSLKPVDTAVYYCNADVLDGGYDYWGQGTQVTVSS”: the “polyreactivity (PSR sort gate)” value is “low polyreactivity”.
With “QVQLVESGGGLVQAGGSLRISCAASGFIFVFYDRGWYRQAPGKEREFVAGITRNDGSTYYADSVKGRFKISRDNAKNTVYLQMNSLKPEDTAVYYCAAADSTWFDWGNYWYYYWGQGTQVTVSS”, the “polyreactivity (PSR sort gate)” value is reported as “low polyreactivity”.
The value for “QVQLVESGGGLVQAGGSLRLSCAASGITISPNAMGWYRQAPGKERELVAAIDWSGDRTYYADSVKGRFTISRDNAKNTVYLQINSLKPEDTAVYYCNVVRRSPGDYSYYYWGQGTQVTVSS” was “low polyreactivity”.
Turning to “QVQLVESGGGLVQAGGSLRLSCAASGLTLWTYAMGWYIQAPGQERELVARIRSGGSTYYADSVKGRFTISRDNAKNTVYLQMNSLKPEDTAVYYCAADLQSRVDYWGQGTQVTVSS”, the “polyreactivity (PSR sort gate)” value is recorded as “high polyreactivity”.
With “QVQLVESGGGLVQAGGSLRLSCAASGLIFDTYAMGWYRQAPGKEREWVADITWSGGSTYYADSVKGRFTISRDNAKNTVYLQMNSLKPEETAVYYCAADSVSLFYWDQRYPDEYDYWGQGTQVTVSS” the entry was “low polyreactivity”.
With “QVQLVESGGGLVQAGGSLRLSCASSGFIFYYNAMGWYRQAPVKERELVAAISYGGGSTYYADSVKGRFTISRDNAKNTVYLQMNSLKPEDTAVYYCSARVYWWNASLAGNYWGQGTQVTVSW”, the “polyreactivity (PSR sort gate)” value is listed as “low polyreactivity”.
In the case of “QVQLVESGGGLVQAGGSLRLSCAASGIIFKSYAMGWSRQAPGKERELVAAITKRGGSTYYADSVKGRFTISRDNAKNTVYLQMNSLKPEDTAVYYCAADDGVGNTDDYWGQGTQVTVSS”, the “polyreactivity (PSR sort gate)” value is recorded as “high polyreactivity”.
With “QVQLVESGGGLVQAGGSLRLSCAASGRTFKYYAMGWSRQAPGKERELVATISSGGSTNYADSVKGRFTISRDNAKNTVYLQMNSLKPEDTAVYYCADTIGHNGFDYWGQGTQVTVSS” the entry was “low polyreactivity”; with “QVQLVESGGGLVQAGGSLSLSCAASRFTIGLYAMGWYRQAPGKEREMVAVISSSGGSTYYADSVKGRFTISRDNAKNTVYLQMNSLKPEDTAVYYCAAEWHDYKFDVTYDYWGQGTQVTVSS”, “low polyreactivity”; with “QVQLVESGGGLVQAGGSLRLSCAPSGRTFVHYTMGWYRQAPGKERELVAAISGTGTSTYYADSVKGRFTISRDNAKNTVYLQMNSLKPEDTAVYYCARRYWYPDAFYRYDYWGQGTQVTVSS”, “low polyreactivity”.
With “QGQLVESGGGLLQAGGSLRLSCAASGRTFPYNALGWYRQAPGKERELVAAMSSGTRTDSADAVKGRFTISRDTAKNTVYLQMNSLKPEATAVYYWAADDYHYLWRADGFDYWGQGTQVTVSS” the entry was “high polyreactivity”; with “QVQLEESGGGLVQAGGSLRLSGAASGYTFGHYGMGWYRQAPGKERELVAAINSGGSTNDADSVKGRFTISRDNAKNTVYVQMNSLKPEDTAVYYCAADHSGGSRYDYWGQGTLVTVSS”, “low polyreactivity”; with “QVQLVESGGGLVQAGGSLRLSCAASGSIFSGNAMGWYRQAPGKERELVADITFSGSSTYADSVKGRFTISRDNAKNTVYLQMNSLKPEDTAVYYCAKKRPGFLRYGSIGEFQYDYWGQGTQVTVSS”, “low polyreactivity”.
Regarding “QVQLVESGGGLVQAGGSLRLSCAASGIIIGNNAMGWYRQAPGKERELVAPISRRGGSTYYADSVKGRFTISRDNAKNTVYLQMNSLKPEYTAVYYCAADIYRYNSYDYWGQGTQVTVSS”, the “polyreactivity (PSR sort gate)” value is listed as “low polyreactivity”.
The value for “QVQLVESGGGLVQAGGSLRLSCAASGSTFRPYAMGWYRQAPGTERELVAAISWSGGRTYYADSVKGRFTISRDNAKNNVYLQMNSLKPEDTAVYYCTRAGRQPKNTYDYWGQGTQVTVSS” was “high polyreactivity”.
The value for “QVQLVESGGGLVQAGGSLRLSCAASGSIFVVYAMGWYRQAPGKERELVASIRTGGSTNYADSVKGRFTISRDNAKNTVYLQMNSLKPEDTAVYYCAAASWNSKRHYYVARYYYWGQGTQVTVSS” was “high polyreactivity”; that for “QVQLVESGGGLVQAGGSLRLSCAASGRTFNGYAMGWYRQAPGKERELVAAITWNGGRTSYADSVKGRFTISRDNAKNTVYLQMNSLKPEDTAVYYCATAVLYPYFFSNMDYWGQGTQVTVSS” was “low polyreactivity”; that for “QVQLVESGGGLVQAGGSLRLSCAASGSTIEFNAMGWYRPAPGKERELVAAISGSGASTYYADSVKGRFTISRDNAKNTVYLQMNSLTPEVTAVYYCNADSLYYDYQTVDVQALDYWGQATQVTVSS” was “low polyreactivity”.
With “QVQRVESGGGLVQAGGSLRLSCAASGIIFQSYAMGWYRHAPGKERELVAAISRRGGRTYYADSVKGRFTISRDNAKNTVYLQMNSLKPEDTAVYYCADRYRYAPYDYWGQGTQVTVSS” the entry was “high polyreactivity”.
In the case of “QVQLVESGGGLVQAGGSLRLSCAASGRTLHDYTMGWYRQAPGKERELVAGITSGGRTNYADSVKGRFTISRDNAKNTVYLQMNSLKPEDTAVYYCAAAWTWWRLYADDYWGQGTQVTVSS”, the “polyreactivity (PSR sort gate)” value is “high polyreactivity”.
“QVQLVESGGGLVQAGGSLRLSCAASGSIFGYNAMGWYRQAPGKERELVAAISLTTGSTYYADSVKGRFTISRDNAKNTVYLQMNSLKPEDTAVYYCAAVDADYYYWGQGTQVTVSS”: the “polyreactivity (PSR sort gate)” value is “high polyreactivity”.
With “QVQLVESRGGLVQEGGSLRLSCAASGRIFSVYAMGSYRQEPGKERELVASISSGGSTYYADSVMWRFTISRDNAKNTVYLQRTSQKAEDTAVYYCAAGYWTTFRSIYDYWGQGTQVTVSS” the entry was “low polyreactivity”.
The value for “QVQLVESGGGLVQAGGSLRLSCAASGRIFYRYAMGWYRQAPGKERELVAAINDGGSTYYADSVKGRFTISRDNAKNTVYLQMNSLKAEDTAVYYCNVVNEHQSDFVVPFDYNHWGQGTQVTVSS” was “low polyreactivity”; that for “QVQLEESGGGLVQAGGSLRLSCAASGSIFDVIAMGWYSQAPGNVRVLVAAISDSGGSTYYADSVKGRFTNSRDNAKKTVYLQMNSLKPEDTAVYYCNADWSWYNYYDFDYWGLGTQVTVSS” was “low polyreactivity”; that for “QVQLVESGGGLVQAGGSLRLSCAASGFTFSGYAMGWYRQAPGKERELVAAITRRGGSTYYADSVKGRFTISRDNAKNTVYLQMNSLKPEDTAVYYCAADSGYPWELDYWGQGTQVTVSS” was “low polyreactivity”.
In the case of “QVQLVESGGGLVQAGGSLRLSCAASGSNFDTYAMGWYIPAPGKERELVAVLTWSGGGTYYSDSVKGRFTISRDNANNTVYLQMTSVKPEVTAVYYCNAADFGWDYASYYWGQGTQLTVSS”, the “polyreactivity (PSR sort gate)” value is given as “low polyreactivity”.
Consider “QVQLVESGGGLVQAGGSLRLSCAASGSIFWRNAMGWYRQAPGKERELVAAITKTGASTYYADSVKGRFTISRDNAKNTVYLQMNSLKPEDTAVYYCAKDTRGRYAGSYRYDYCGQGTQVTVSS”, for which the “polyreactivity (PSR sort gate)” value was “low polyreactivity”.
As for “QVQLVESGGGLVKAGGSLRLSCAASGSTFQWYAMGWYRQAPGKERELVAAINKSGGTTYYADSVKGRFTISRDNAKNSVYLQMNSLKPEDTAVYYCATDNPVVYQPGNMDYWGQGTQVTVSS”, the “polyreactivity (PSR sort gate)” value is “low polyreactivity”.
On to “QVQLVESGGGLVQAGGSLRLSCAASGSTLAGYAMGWYRPAPGKERELVAAIDWTGGSTTYADSVKGRFTISRDNAKNTVYLQMNSLKPEDTAVYYCNVDLGVNGDYWGQGTQVTVSS”, for which the “polyreactivity (PSR sort gate)” value is “low polyreactivity”.

The values are drawn from the nanobody polyreactivity screen of Harvey et al. (2022).
